Results as given in patent US20180312579A1 (Genentech, published 2018).

T1: recombinant human RSPO3 (human, UniProt Q9BXY4 22-272)
T1 sequence: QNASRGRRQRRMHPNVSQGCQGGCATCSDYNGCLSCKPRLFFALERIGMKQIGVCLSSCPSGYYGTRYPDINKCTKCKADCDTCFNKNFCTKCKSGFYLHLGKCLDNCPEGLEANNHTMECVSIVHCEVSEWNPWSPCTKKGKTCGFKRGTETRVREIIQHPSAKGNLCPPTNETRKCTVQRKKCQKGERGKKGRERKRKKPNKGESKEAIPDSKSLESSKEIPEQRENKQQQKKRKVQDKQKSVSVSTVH

T2: cynomolgus RSPO3 (cynomolgus, UniProt A0A2K5UTQ7 22-273)
T2 sequence: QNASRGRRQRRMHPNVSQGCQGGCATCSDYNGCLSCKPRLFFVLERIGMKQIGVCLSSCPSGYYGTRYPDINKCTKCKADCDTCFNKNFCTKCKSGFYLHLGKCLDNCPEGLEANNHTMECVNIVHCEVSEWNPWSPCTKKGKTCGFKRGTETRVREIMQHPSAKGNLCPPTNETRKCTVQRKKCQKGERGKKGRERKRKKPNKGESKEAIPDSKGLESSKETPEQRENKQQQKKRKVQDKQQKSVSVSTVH

T3: mouse RSPO3 (mouse, UniProt Q2TJ95 22-277, limits assumed)
T3 sequence (looked up): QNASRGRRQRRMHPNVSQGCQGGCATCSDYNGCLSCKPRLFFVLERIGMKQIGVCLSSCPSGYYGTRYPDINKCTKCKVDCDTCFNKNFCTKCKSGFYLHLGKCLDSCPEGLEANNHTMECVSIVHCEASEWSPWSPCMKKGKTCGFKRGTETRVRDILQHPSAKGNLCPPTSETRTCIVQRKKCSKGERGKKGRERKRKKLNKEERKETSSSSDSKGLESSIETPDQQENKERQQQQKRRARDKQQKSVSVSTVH

T4: human RSPO2 L186P variant (human, UniProt Q6UXX9 22-243)
T4 chain: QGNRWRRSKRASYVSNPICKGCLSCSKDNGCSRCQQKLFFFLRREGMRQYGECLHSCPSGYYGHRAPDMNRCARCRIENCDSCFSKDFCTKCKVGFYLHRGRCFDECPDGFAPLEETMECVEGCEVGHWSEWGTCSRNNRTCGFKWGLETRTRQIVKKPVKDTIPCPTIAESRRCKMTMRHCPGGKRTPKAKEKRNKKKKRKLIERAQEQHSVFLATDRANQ

T5: human RSPO3 with C-terminal HA tag, stably expressed in 293 cells (human, UniProt Q9BXY4 22-272)
T5 construct: Whole open reading frame expressed in HEK-293 cells (high, medium, low); FFPE pellets; also called hRSPO3; RSPO3 Hi
T5 sequence: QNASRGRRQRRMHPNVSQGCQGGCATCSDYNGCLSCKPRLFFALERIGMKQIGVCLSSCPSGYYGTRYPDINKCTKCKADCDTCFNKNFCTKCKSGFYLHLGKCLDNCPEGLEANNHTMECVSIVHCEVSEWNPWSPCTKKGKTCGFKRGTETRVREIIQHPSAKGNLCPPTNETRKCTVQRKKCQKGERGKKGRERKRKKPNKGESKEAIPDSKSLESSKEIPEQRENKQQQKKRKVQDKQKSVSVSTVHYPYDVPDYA

T6: FLAG-tagged human RSPO3 (Genentech) (human, UniProt Q9BXY4 22-272)
T6 construct: also called hRSPO3; RSPO3 coated plates; not shown: FLAG tag
T6 sequence: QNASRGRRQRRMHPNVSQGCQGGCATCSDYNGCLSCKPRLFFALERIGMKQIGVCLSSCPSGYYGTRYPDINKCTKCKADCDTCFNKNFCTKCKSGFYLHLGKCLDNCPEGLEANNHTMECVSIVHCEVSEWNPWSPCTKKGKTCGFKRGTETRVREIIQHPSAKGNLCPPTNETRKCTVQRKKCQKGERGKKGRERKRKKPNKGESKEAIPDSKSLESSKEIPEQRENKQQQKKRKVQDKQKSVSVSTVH


Key:
recombinant human RSPO2 = recombinant human RSPO2 (human, UniProt Q6UXX9 22-243); assay: cell-based or functional assay
recombinant human RSPO3 = target: T1, recombinant human RSPO3; assay: cell-based or functional assay
cynomolgus RSPO3 = target: T2, cynomolgus RSPO3; assay: cell-based or functional assay
mouse RSPO3 = target: T3, mouse RSPO3; assay: cell-based or functional assay
cynomolgus RSPO2 = cynomolgus RSPO2 (cynomolgus, UniProt G7PCH9 22-243); assay: cell-based or functional assay
mouse RSPO2 = mouse RSPO2 (mouse, UniProt Q8BFU0 22-205, limits assumed); assay: cell-based or functional assay
Sequence of mouse RSPO2 (Q8BFU0 22-205 limits assumed): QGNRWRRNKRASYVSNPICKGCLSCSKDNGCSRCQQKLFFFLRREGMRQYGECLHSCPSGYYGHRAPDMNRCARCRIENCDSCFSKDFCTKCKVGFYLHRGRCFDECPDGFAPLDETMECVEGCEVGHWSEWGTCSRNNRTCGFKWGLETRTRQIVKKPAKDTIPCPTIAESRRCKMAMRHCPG

[1] = target: T4, human RSPO2 L186P variant; assay: cell-based or functional assay
[2] = target: T7, human RSPO2 with C-terminal HA tag, stably expressed in 293 cells (human, UniProt Q6UXX9 22-243); assay: IHC, FFPE 293 cell pellet, RSPO2 Hi
T7 construct: Whole open reading frame was expressed from a lentiviral vector in HEK-293 cells sorted for high, medium or low expression; formalin-fixed paraffin-embedded pellets; also called hRSPO2; RSPO2 Hi

[3] = target: T7, human RSPO2 with C-terminal HA tag, …; assay: IHC, FFPE 293 cell pellet, RSPO2 Low
[4] = target: T7, human RSPO2 with C-terminal HA tag, …; assay: IHC, FFPE 293 cell pellet, RSPO2 Med
[5] = target: T8, human RSPO1 with C-terminal HA tag, stably expressed in 293 cells (human, UniProt Q2MKA7 21-263); assay: IHC, FFPE 293 cell pellet, RSPO1 Hi; - = not significant staining
T8 construct: also called hRSPO1; RSPO1 Hi
T8 sequence (Q2MKA7 other isoform, or with tags, fused parts or gaps limits assumed): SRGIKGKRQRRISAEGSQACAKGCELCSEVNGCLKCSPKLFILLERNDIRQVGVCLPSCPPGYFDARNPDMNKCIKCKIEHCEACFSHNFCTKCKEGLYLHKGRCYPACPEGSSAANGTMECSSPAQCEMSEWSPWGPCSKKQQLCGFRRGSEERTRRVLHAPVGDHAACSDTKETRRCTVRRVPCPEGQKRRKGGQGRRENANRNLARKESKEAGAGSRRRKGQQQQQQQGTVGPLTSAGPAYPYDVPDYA

[6] = target: T5, human RSPO3 with C-terminal HA tag, …; assay: IHC, FFPE 293 cell pellet, RSPO3 Hi; - = not significant staining
[7] = target: T9, human RSPO4 with C-terminal HA tag, stably expressed in 293 cells (human, UniProt Q2I0M5 20-234); assay: IHC, FFPE 293 cell pellet, RSPO4 Hi; - = not significant staining
T9 construct: also called hRSPO4; RSPO4 Hi
T9 sequence (Q2I0M5 other isoform, or with tags, fused parts or gaps limits assumed): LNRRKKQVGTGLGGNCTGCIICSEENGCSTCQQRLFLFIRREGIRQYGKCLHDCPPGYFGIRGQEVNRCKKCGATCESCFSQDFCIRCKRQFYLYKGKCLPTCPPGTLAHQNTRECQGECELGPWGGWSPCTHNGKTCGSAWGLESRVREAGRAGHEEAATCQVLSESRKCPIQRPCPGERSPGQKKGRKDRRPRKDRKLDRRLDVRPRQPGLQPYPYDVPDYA

[8] = target: T10, FLAG-tagged human RSPO2 (Genentech) (human, UniProt Q6UXX9 22-243); assay: competitive binding ELISA: titrated against biotinylated RNF43-Flag (RNF43-ECD) binding to plate-coated hRSPO2; signal = bound RNF43, normalized OD
T10 construct: also called hRSPO2; RSPO2 coated plates; not shown: FLAG tag

[9] = target: T5, human RSPO3 with C-terminal HA tag, …; assay: IHC, FFPE 293 cell pellet, RSPO3 Hi
[10] = target: T5, human RSPO3 with C-terminal HA tag, …; assay: IHC, FFPE 293 cell pellet, RSPO3 Low
[11] = target: T5, human RSPO3 with C-terminal HA tag, …; assay: IHC, FFPE 293 cell pellet, RSPO3 Med
[12] = target: T6, FLAG-tagged human RSPO3 (Genentech); assay: competitive binding ELISA: titrated against biotinylated RNF43-Flag (RNF43-ECD) binding to plate-coated hRSPO3; signal = bound RNF43, normalized OD
[13] = target: T10, FLAG-tagged human RSPO2 (Genentech); assay: competitive binding ELISA: antibody titrated against LGR4-Fc (LGR4-ECD) binding to plate-coated hRSPO2; signal = bound LGR4-Fc, OD(450/630)/OD no antibody
Experimental: (§1) To measure the activity of anti-RSPO antibodies in blocking the binding of LGR4 and -5 ECDs to RSPOs, MaxiSorp 384-well microwell plates (Thermo Scientific Nunc, Roskilde, Denmark) were coated with 25 ul/well of 0.5 μg/ml hRSPO2 or hRSPO3 (Genentech) in 50 mM carbonate buffer, pH 9.6, overnight at 4° C. Plates were blocked with at 80 ul/well of 0.5% bovine serum albumin, 15 parts per million Proclin 300 in phosphate buffered saline (PBS), pH 7.4, for 1 hour. Serially diluted anti-RSPO antibodies ([…] in […] serial dilution plus buffer blank) containing 0.1 μg/ml LGR4-Fc or 0.015 μg/ml LGR5-Fc in assay buffer (0.5% BSA, 0.05% polysorbate 20, 15 parts per million Proclin 300 in PBS) were added to the plates at 25 ul/well. After a 2-hour incubation, LGR4-Fc and LGR5-Fc bound to the plates were detected using peroxidase labeled goat F(ab′)2 anti-human Fc (Jackson ImmunoResearch, West Grove, Pa.). After a 1 hour incubation, the substrate 3,3′,5,5′-tetramethyl benzidine (Moss Inc., Pasadena, Md.) was added to the plates and the reaction was stopped by adding 1 M phosphoric acid. Plates were washed with PBS, pH 7.4, containing 0.05% tween 20, between steps and all the incubation steps following the coating step were performed at room temperature on an orbital shaker. Absorbance was read at 450 nm on a multiskan Ascent reader (Thermo Scientific, Hudson, N.H.).

[14] = target: T6, FLAG-tagged human RSPO3 (Genentech); assay: competitive binding ELISA: antibody titrated against LGR4-Fc (LGR4-ECD) binding to plate-coated hRSPO3; signal = bound LGR4-Fc, OD(450/630)/OD no antibody
Experimental: as §1

| Binder | IC50, WNT luciferase reporter, bivalent antibody (recombinant human RSPO2) [nM] | IC50, WNT luciferase reporter, bivalent antibody (recombinant human RSPO3) [nM] | IC50, WNT luciferase reporter, bivalent antibody (cynomolgus RSPO3) [nM] | IC50, WNT luciferase reporter, bivalent antibody (mouse RSPO3) [nM] | IC50, WNT luciferase reporter, bivalent antibody (cynomolgus RSPO2) [nM] | IC50, WNT luciferase reporter, bivalent antibody (mouse RSPO2) [nM] | IC50 (read off the curve), WNT reporter RLU stimulated by 38 pM rhRSPO2 L186P [1] [pM] | percentage of cells staining [2] [%] | percentage of cells staining [3] [%] | percentage of cells staining [4] [%] | binding result [5] | binding result [6] | binding result [7] | IC50 (read off the curve) [8] [µg/mL] | percentage of cells staining [9] [%] | percentage of cells staining [10] [%] | percentage of cells staining [11] [%] | IC50 (read off the curve) [12] [µg/mL] | IC50 (read off the curve) [13] [µg/mL] | IC50 (read off the curve) [14] [µg/mL] |
| --- | --- | --- | --- | --- | --- | --- | --- | --- | --- | --- | --- | --- | --- | --- | --- | --- | --- | --- | --- | --- |
| 36D2 (antibody, V domains shown, also called monoclonal antibody 36D2) VH: QIQLQESGPGLVKPSQSLSLTCSVTGNSITSSDWSWIRQFPGKKLEWMGYMNYGGGTYYNPSLENRISITRDTSKNQFFLHLKSVTTEDTATYYCARERPHPYAYFDVWGQGIQVTVSS VL: ELVFTQPQSVSGSLGQEISISCTRSSGNIGSNYVSWYQQQSSNKPRLLIYKFDQRPSGVPDRFSGSTDSSSNSGILTISRLQPEDEGDYYCLSGYDKYVFGSGTQLTLL | 0.012 | > 500 | > 500 | > 500 | 0.013 | 0.044 | ~20 | > 95 | < 5 | 50 | no binding | no binding | no binding | ~1 |  |  |  |  |  |  |
| 11F11 (antibody, V domains shown, also called monoclonal antibody 11F11) VH: QVQLQQSGPQLVKPGFSVKFSCKASGITFTEYYVTWVKQRAGQGLEWVGDIDPENGDTDYNQKFQGKATITADKSSSTAYMELSSLTSEDSAVYYCATGYDYAFDSWGQGTLVTVSS VL: QPVLTQSPSASASLGASVKLTCTLSSQHSSYGITWLQQHPDKAPKCVMYLRSDGSHSKGDGIPDRFSGSSSGAHRYLSISNVQPEDEAIYFCVTYDSTVGVFGSGTQLTVP | 0.179 | > 500 | > 500 | > 500 | 1.9 | > 500 |  |  |  |  |  | no binding |  |  |  |  |  |  |  |  |
| 26E11 (antibody, V domains shown, also called monoclonal antibody 26E11; anti-RSPO2/3 antibody) VH: EVQLQESGPSLVKPSQTLSLTCSVTGDSITSGYWSWIRKFPGNKLEFMGYISFSGKTYYIPSLKSRVSITRDTSKNQYYLQLNSVTTEDTATYYCATYHGYGGPWFAYWGQGTLVTVSS VL: DIKMTQSPSSMYASLGERVTITCKASQDIDSYLSWFQQKPGKSPKTLIYLTNRLIDGVPSRFSGSGSGQDYSLTINSLEYEDMGIYYCLQYDEFPVTFGAGTRLEIK | 9.8 | 1e-05 | 0.0002 | 0.0004 | 2.7 | 24 |  | 70 | 10 | 40 | no binding |  | no binding | ~0.1 | 90 | 50 | 70 | ~0.08 | ~0.09 | ~0.1 |
| 49G5 (antibody, V domains shown, also called monoclonal antibody 49G5) VH: QVQLKESGPGLVQPSQTLSLTCTVSGFSLTSYNIHWVRQPPGKGLEWMGAVWRGGGTYYNSNLKSRVIITRDTSKSQVLLKLNNLQHEDTAMYYCAREELRYVYFDVWGQGIQVTVSS VL: QPLLTQSPSVSASLGASVKLTCTLSSQYNTYYIEWYQQHPDKSPKFLMQLSDGSHSKGDGIPDRFSGSSSGAHRYLSISNLQLEDEAIYYCGVSDVSLYVFGSGTQLTVL |  |  |  |  |  |  |  | 95 | 40 | 60 | no binding | no binding | no binding |  |  |  |  |  |  |  |
